{"source": "patent US20240117018A1", "assay_in_all_cases": "cell-based or functional assay", "key": {"[1]": {"biological_target": "HIV-1 Env of pseudovirus 235-47 (HIV-1)"}, "[2]": {"biological_target": "HIV-1 Env of pseudovirus C1080.c03 (HIV-1)"}, "[3]": {"biological_target": "HIV-1 Env of pseudovirus BJOX028000.10.3 (HIV-1)"}, "[4]": {"biological_target": "HIV-1 Env of pseudovirus X2131_C1_B5 (HIV-1)"}, "[5]": {"biological_target": "HIV-1 Env of pseudovirus 231966.c02 (HIV-1)"}, "[6]": {"biological_target": "HIV-1 Env of pseudovirus 6811.v7.c18 (HIV-1)"}, "[7]": {"biological_target": "HIV-1 Env of pseudovirus 6540.v4.c1 (HIV-1)"}, "[8]": {"biological_target": "HIV-1 Env of pseudovirus 9004SS_A3_4 (HIV-1)"}, "[9]": {"biological_target": "HIV-1 Env of pseudovirus 6041.v3.c23 (HIV-1)"}, "[10]": {"biological_target": "HIV-1 Env of pseudovirus 620345.c01 (HIV-1)"}, "[11]": {"biological_target": "HIV-1 Env of pseudovirus 928-28 (HIV-1)"}, "[12]": {"biological_target": "HIV-1 Env of pseudovirus T251-18 (HIV-1)"}, "[13]": {"biological_target": "HIV-1 Env of pseudovirus 3103.v3.c10 (HIV-1)"}, "[14]": {"biological_target": "HIV-1 Env of pseudovirus BJOX015000.11.5 (HIV-1)"}, "[15]": {"biological_target": "HIV-1 Env of pseudovirus 211-9 (HIV-1)"}, "[16]": {"biological_target": "HIV-1 Env of pseudovirus R1166.c01 (HIV-1)"}, "[17]": {"biological_target": "HIV-1 Env of pseudovirus T255-34 (HIV-1)"}, "[18]": {"biological_target": "HIV-1 Env of pseudovirus 6480.v4.c25 (HIV-1)"}, "[19]": {"biological_target": "HIV-1 Env of pseudovirus 89-F1_2_25 (HIV-1)"}, "[20]": {"biological_target": "HIV-1 Env of pseudovirus 191084 B7-19 (HIV-1)"}, "[21]": {"biological_target": "HIV-1 Env of pseudovirus BJOX025000.01.1 (HIV-1)"}, "[22]": {"biological_target": "HIV-1 Env of pseudovirus 231965.c01 (HIV-1)"}, "[23]": {"biological_target": "HIV-1 Env of pseudovirus P1981_C5_3 (HIV-1)"}, "[24]": {"biological_target": "HIV-1 Env of pseudovirus 191955_A11 (HIV-1)"}, "[25]": {"biological_target": "HIV-1 Env of pseudovirus 6545.v4.c1 (HIV-1)"}, "[26]": {"biological_target": "HIV-1 Env of pseudovirus 3301.v1.c24 (HIV-1)"}, "[27]": {"biological_target": "HIV-1 Env of pseudovirus C4118.c09 (HIV-1)"}, "[28]": {"biological_target": "HIV-1 Env of pseudovirus X1632_S2_B10 (HIV-1)"}, "[29]": {"biological_target": "HIV-1 Env of pseudovirus C3347.c11 (HIV-1)"}, "[30]": {"biological_target": "HIV-1 Env of pseudovirus BJOX009000.02.4 (HIV-1)"}, "[31]": {"biological_target": "HIV-1 Env of pseudovirus 6952.v1.c20 (HIV-1)"}, "[32]": {"biological_target": "HIV-1 Env of pseudovirus R2184.c04 (HIV-1)"}, "[33]": {"biological_target": "HIV-1 Env of pseudovirus X1193_c1 (HIV-1)"}, "[34]": {"biological_target": "HIV-1 Env of pseudovirus 3817.v2.c59 (HIV-1)"}, "[35]": {"biological_target": "HIV-1 Env of pseudovirus T257-31 (HIV-1)"}, "[36]": {"biological_target": "HIV-1 Env of pseudovirus 3016.v5.c45 (HIV-1)"}}, "data": [{"substance": "PGT145 (antibody)", "values": [{"measurement": "IC50 (Titer in TZM.bl cells)", "setting": "[1]", "result": 3.21, "unit": "mg/L"}, {"measurement": "IC80 (Titer in TZM.bl cells)", "setting": "[1]", "result": 36, "unit": "mg/L"}, {"measurement": "IC50 (Titer in TZM.bl cells)", "setting": "[2]", "result": 0.024, "unit": "mg/L"}, {"measurement": "IC80 (Titer in TZM.bl cells)", "setting": "[2]", "result": 0.146, "unit": "mg/L"}, {"measurement": "IC50 (Titer in TZM.bl cells)", "setting": "[3]", "result": "> 50", "unit": "mg/L"}, {"measurement": "IC80 (Titer in TZM.bl cells)", "setting": "[3]", "result": "> 50", "unit": "mg/L"}, {"measurement": "IC50 (Titer in TZM.bl cells)", "setting": "[4]", "result": 0.018, "unit": "mg/L"}, {"measurement": "IC80 (Titer in TZM.bl cells)", "setting": "[4]", "result": 0.065, "unit": "mg/L"}, {"measurement": "IC50 (Titer in TZM.bl cells)", "setting": "[5]", "result": "< 0.001", "unit": "mg/L"}, {"measurement": "IC80 (Titer in TZM.bl cells)", "setting": "[5]", "result": 0.01, "unit": "mg/L"}, {"measurement": "IC50 (Titer in TZM.bl cells)", "setting": "[6]", "result": "> 50", "unit": "mg/L"}, {"measurement": "IC80 (Titer in TZM.bl cells)", "setting": "[6]", "result": "> 50", "unit": "mg/L"}, {"measurement": "IC50 (Titer in TZM.bl cells)", "setting": "[7]", "result": 0.08, "unit": "mg/L"}, {"measurement": "IC80 (Titer in TZM.bl cells)", "setting": "[7]", "result": 5.09, "unit": "mg/L"}, {"measurement": "neutralization IC50", "setting": "[8]", "result": 0.018, "unit": "mg/L"}, {"measurement": "neutralization IC80", "setting": "[8]", "result": 0.419, "unit": "mg/L"}, {"measurement": "IC50 (Titer in TZM.bl cells)", "setting": "[9]", "result": 0.964, "unit": "mg/L"}, {"measurement": "IC80 (Titer in TZM.bl cells)", "setting": "[9]", "result": "> 50", "unit": "mg/L"}, {"measurement": "IC50 (Titer in TZM.bl cells)", "setting": "[10]", "result": 0.241, "unit": "mg/L"}, {"measurement": "IC80 (Titer in TZM.bl cells)", "setting": "[10]", "result": 19.7, "unit": "mg/L"}, {"measurement": "neutralization IC50", "setting": "[11]", "result": "> 50", "unit": "mg/L"}, {"measurement": "neutralization IC80", "setting": "[11]", "result": "> 50", "unit": "mg/L"}, {"measurement": "IC50 (Titer in TZM.bl cells)", "setting": "[12]", "result": 0.351, "unit": "mg/L"}, {"measurement": "IC80 (Titer in TZM.bl cells)", "setting": "[12]", "result": 1.39, "unit": "mg/L"}, {"measurement": "IC50 (Titer in TZM.bl cells)", "setting": "[13]", "result": 0.043, "unit": "mg/L"}, {"measurement": "IC80 (Titer in TZM.bl cells)", "setting": "[13]", "result": 0.164, "unit": "mg/L"}, {"measurement": "IC50 (Titer in TZM.bl cells)", "setting": "[14]", "result": "> 50", "unit": "mg/L"}, {"measurement": "IC80 (Titer in TZM.bl cells)", "setting": "[14]", "result": "> 50", "unit": "mg/L"}, {"measurement": "IC50 (Titer in TZM.bl cells)", "setting": "[15]", "result": 0.129, "unit": "mg/L"}, {"measurement": "IC80 (Titer in TZM.bl cells)", "setting": "[15]", "result": 0.923, "unit": "mg/L"}, {"measurement": "IC50 (Titer in TZM.bl cells)", "setting": "[16]", "result": 2.27, "unit": "mg/L"}, {"measurement": "IC80 (Titer in TZM.bl cells)", "setting": "[16]", "result": 17.9, "unit": "mg/L"}, {"measurement": "IC50 (Titer in TZM.bl cells)", "setting": "[17]", "result": "> 50", "unit": "mg/L"}, {"measurement": "IC80 (Titer in TZM.bl cells)", "setting": "[17]", "result": "> 50", "unit": "mg/L"}, {"measurement": "IC50 (Titer in TZM.bl cells)", "setting": "[18]", "result": "> 50", "unit": "mg/L"}, {"measurement": "IC80 (Titer in TZM.bl cells)", "setting": "[18]", "result": "> 50", "unit": "mg/L"}, {"measurement": "IC50 (Titer in TZM.bl cells)", "setting": "[19]", "result": 0.8, "unit": "mg/L"}, {"measurement": "IC80 (Titer in TZM.bl cells)", "setting": "[19]", "result": 20, "unit": "mg/L"}, {"measurement": "neutralization IC50", "setting": "[20]", "result": 0.028, "unit": "mg/L"}, {"measurement": "neutralization IC80", "setting": "[20]", "result": 0.345, "unit": "mg/L"}, {"measurement": "IC50 (Titer in TZM.bl cells)", "setting": "[21]", "result": 6.63, "unit": "mg/L"}, {"measurement": "IC80 (Titer in TZM.bl cells)", "setting": "[21]", "result": "> 50", "unit": "mg/L"}, {"measurement": "IC50 (Titer in TZM.bl cells)", "setting": "[22]", "result": 0.403, "unit": "mg/L"}, {"measurement": "IC80 (Titer in TZM.bl cells)", "setting": "[22]", "result": 15, "unit": "mg/L"}, {"measurement": "IC50 (Titer in TZM.bl cells)", "setting": "[23]", "result": 5.41, "unit": "mg/L"}, {"measurement": "IC80 (Titer in TZM.bl cells)", "setting": "[23]", "result": "> 50", "unit": "mg/L"}, {"measurement": "neutralization IC50", "setting": "[24]", "result": "< 0.001", "unit": "mg/L"}, {"measurement": "neutralization IC80", "setting": "[24]", "result": "< 0.001", "unit": "mg/L"}, {"measurement": "IC50 (Titer in TZM.bl cells)", "setting": "[25]", "result": 0.114, "unit": "mg/L"}, {"measurement": "IC80 (Titer in TZM.bl cells)", "setting": "[25]", "result": 3.1, "unit": "mg/L"}, {"measurement": "IC50 (Titer in TZM.bl cells)", "setting": "[26]", "result": 0.219, "unit": "mg/L"}, {"measurement": "IC80 (Titer in TZM.bl cells)", "setting": "[26]", "result": 4.22, "unit": "mg/L"}, {"measurement": "IC50 (Titer in TZM.bl cells)", "setting": "[27]", "result": "< 0.001", "unit": "mg/L"}, {"measurement": "IC80 (Titer in TZM.bl cells)", "setting": "[27]", "result": 0.004, "unit": "mg/L"}, {"measurement": "IC50 (Titer in TZM.bl cells)", "setting": "[28]", "result": 0.012, "unit": "mg/L"}, {"measurement": "IC80 (Titer in TZM.bl cells)", "setting": "[28]", "result": 2.03, "unit": "mg/L"}, {"measurement": "IC50 (Titer in TZM.bl cells)", "setting": "[29]", "result": 0.005, "unit": "mg/L"}, {"measurement": "IC80 (Titer in TZM.bl cells)", "setting": "[29]", "result": 0.044, "unit": "mg/L"}, {"measurement": "IC50 (Titer in TZM.bl cells)", "setting": "[30]", "result": 0.117, "unit": "mg/L"}, {"measurement": "IC80 (Titer in TZM.bl cells)", "setting": "[30]", "result": 0.745, "unit": "mg/L"}, {"measurement": "IC50 (Titer in TZM.bl cells)", "setting": "[31]", "result": 3.12, "unit": "mg/L"}, {"measurement": "IC80 (Titer in TZM.bl cells)", "setting": "[31]", "result": "> 50", "unit": "mg/L"}, {"measurement": "IC50 (Titer in TZM.bl cells)", "setting": "[32]", "result": 0.073, "unit": "mg/L"}, {"measurement": "IC80 (Titer in TZM.bl cells)", "setting": "[32]", "result": 0.376, "unit": "mg/L"}, {"measurement": "IC50 (Titer in TZM.bl cells)", "setting": "[33]", "result": 0.013, "unit": "mg/L"}, {"measurement": "IC80 (Titer in TZM.bl cells)", "setting": "[33]", "result": 0.091, "unit": "mg/L"}, {"measurement": "IC50 (Titer in TZM.bl cells)", "setting": "[34]", "result": "> 50", "unit": "mg/L"}, {"measurement": "IC80 (Titer in TZM.bl cells)", "setting": "[34]", "result": "> 50", "unit": "mg/L"}, {"measurement": "neutralization IC50", "setting": "[35]", "result": 5.18, "unit": "mg/L"}, {"measurement": "neutralization IC80", "setting": "[35]", "result": "> 50", "unit": "mg/L"}, {"measurement": "IC50 (Titer in TZM.bl cells)", "setting": "[36]", "result": "> 50", "unit": "mg/L"}, {"measurement": "IC80 (Titer in TZM.bl cells)", "setting": "[36]", "result": "> 50", "unit": "mg/L"}]}]}
